Key:
Assay in all cases: two-hybrid library CCNG1;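 note: natural log of median RNA to DNA barcode read ratio; higher means stronger binding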
[1] = target: T1, 4H166-bN
T1 chain: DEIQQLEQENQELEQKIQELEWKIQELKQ

[2] = target: T2, 4H2143-bN
T2 chain: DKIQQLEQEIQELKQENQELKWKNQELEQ

[3] = target: T3, 4H2162-bN
T3 chain: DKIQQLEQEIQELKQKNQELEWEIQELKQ

[4] = target: T4, 4H2233-bN
T4 chain: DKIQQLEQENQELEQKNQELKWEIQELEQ

[5] = target: T5, 4H2253-bN
T5 chain: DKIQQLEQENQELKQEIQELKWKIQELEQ

[6] = target: T6, 4H235-bN
T6 chain: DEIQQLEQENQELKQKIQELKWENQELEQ

[7] = target: T7, 4H2444-bN
T7 chain: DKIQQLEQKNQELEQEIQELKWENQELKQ

[8] = target: T8, 4H2518-bN
T8 chain: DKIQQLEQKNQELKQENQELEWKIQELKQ

[9] = target: T9, 4H2585-bN
T9 chain: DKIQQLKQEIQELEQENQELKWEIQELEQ

[10] = target: T10, 4H264-bN
T10 chain: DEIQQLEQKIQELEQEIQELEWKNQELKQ

[11] = target: T11, 4H2760-bN
T11 chain: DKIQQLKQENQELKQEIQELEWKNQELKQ

[12] = target: T12, 4H2859-bN
T12 chain: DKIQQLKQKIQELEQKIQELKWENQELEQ

[13] = target: T13, 4H2931-bN
T13 chain: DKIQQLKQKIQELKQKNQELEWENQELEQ

[14] = target: T14, 4H3041-bN
T14 chain: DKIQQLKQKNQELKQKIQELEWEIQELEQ

[15] = target: T15, 4H3297-bN
T15 chain: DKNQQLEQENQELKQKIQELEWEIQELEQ

[16] = target: T16, 4H3364-bN
T16 chain: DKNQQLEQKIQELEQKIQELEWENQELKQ

[17] = target: T17, 4H3381-bN
T17 chain: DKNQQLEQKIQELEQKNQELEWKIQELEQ

[18] = target: T18, 4H349-bN
T18 chain: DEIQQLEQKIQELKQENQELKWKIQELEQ

[19] = target: T19, 4H56-bN
T19 chain: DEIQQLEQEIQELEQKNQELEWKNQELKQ

[20] = target: T20, 4H730-bN
T20 chain: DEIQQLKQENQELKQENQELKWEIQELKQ

[21] = target: T21, 4H796-bN
T21 chain: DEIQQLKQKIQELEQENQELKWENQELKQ

[22] = target: T22, 4H932-bN
T22 chain: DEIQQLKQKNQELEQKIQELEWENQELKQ

[23] = target: T23, 4H949-bN
T23 chain: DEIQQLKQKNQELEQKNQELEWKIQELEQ

[24] = target: T24, 4H121-bH
T24 chain: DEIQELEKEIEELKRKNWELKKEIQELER

[25] = target: T25, 4H182-bH
T25 chain: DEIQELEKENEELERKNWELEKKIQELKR

[26] = target: T26, 4H2134-bH
T26 chain: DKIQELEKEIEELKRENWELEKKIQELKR

[27] = target: T27, 4H2143-bH
T27 chain: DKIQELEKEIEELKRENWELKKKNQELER

[28] = target: T28, 4H2223-bH
T28 chain: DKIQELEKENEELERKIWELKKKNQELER

[29] = target: T29, 4H2438-bH
T29 chain: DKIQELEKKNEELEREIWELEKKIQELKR

[30] = target: T30, 4H2473-bH
T30 chain: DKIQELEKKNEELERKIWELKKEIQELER

[31] = target: T31, 4H2503-bH
T31 chain: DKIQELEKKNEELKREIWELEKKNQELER

[32] = target: T32, 4H2588-bH
T32 chain: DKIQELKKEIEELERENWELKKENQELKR

[33] = target: T33, 4H2692-bH
T33 chain: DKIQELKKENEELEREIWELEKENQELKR

[34] = target: T34, 4H2717-bH
T34 chain: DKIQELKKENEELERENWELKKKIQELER

[35] = target: T35, 4H2839-bH
T35 chain: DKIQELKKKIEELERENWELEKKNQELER

[36] = target: T36, 4H2915-bH
T36 chain: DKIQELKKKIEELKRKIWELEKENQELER

[37] = target: T37, 4H3057-bH
T37 chain: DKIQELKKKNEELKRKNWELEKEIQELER

[38] = target: T38, 4H319-bH
T38 chain: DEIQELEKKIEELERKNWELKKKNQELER

[39] = target: T39, 4H3277-bH
T39 chain: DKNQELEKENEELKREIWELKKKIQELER

[40] = target: T40, 4H348-bH
T40 chain: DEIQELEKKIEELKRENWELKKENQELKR

[41] = target: T41, 4H40-bH
T41 chain: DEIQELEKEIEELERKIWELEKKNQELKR

[42] = target: T42, 4H477-bH
T42 chain: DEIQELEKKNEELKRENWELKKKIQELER

[43] = target: T43, 4H492-bH
T43 chain: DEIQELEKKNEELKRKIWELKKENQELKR

[44] = target: T44, 4H741-bH
T44 chain: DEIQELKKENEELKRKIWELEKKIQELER

B1: 4H166-bN (peptide)
chain: DEIQQLEQENQELEQKIQELEWKIQELKQ
- interaction score [1]: 0.12
- interaction score [2]: 0.201
- interaction score [3]: 0.326
- interaction score [4]: 0.155
- interaction score [5]: -0.769
- interaction score [6]: -0.365
- interaction score [7]: 0.231
- interaction score [8]: 1.34
- interaction score [9]: -0.823
- interaction score [10]: 0.717
- interaction score [11]: 0.225
- interaction score [12]: 0.54
- interaction score [13]: -0.274
- interaction score [14]: 1.6
- interaction score [15]: 1.54
- interaction score [16]: -0.154
- interaction score [17]: 0.0552
- interaction score [18]: -0.759
- interaction score [19]: -0.199
- interaction score [20]: -0.71
- interaction score [21]: -1.95
- interaction score [22]: -0.134
- interaction score [23]: -0.601

B2: 4H121-bH (peptide)
chain: DEIQELEKEIEELKRKNWELKKEIQELER
- interaction score [24]: -0.364
- interaction score [25]: 0.0625
- interaction score [26]: 1.11
- interaction score [27]: 0.472
- interaction score [28]: 1.48
- interaction score [29]: 1.45
- interaction score [30]: -0.404
- interaction score [31]: -0.913
- interaction score [32]: -1.11
- interaction score [33]: 0.482
- interaction score [34]: 0.068
- interaction score [35]: 1.02
- interaction score [36]: 0.235
- interaction score [37]: 0.547
- interaction score [38]: -1.11
- interaction score [39]: -0.678
- interaction score [40]: -0.636
- interaction score [41]: -1.44
- interaction score [42]: -1.3
- interaction score [43]: -0.574
- interaction score [44]: -0.43

From PMC10397247
